The target in the test is insulin receptor (IR-B) (UniProt P06213). Kind of test: cell-based or functional assay.

“CIU-033 (from UniProt P09681 52-93) (ligand; B1 amine-CH2CH2CH2-S-S-Cys of incretin; X=Aib)” came in with a Normalized IR-B EC50 of 0.988 nM.
